Source: patent US20220332800A1

Assays:
[1] = target: Zika PRVABC59 live virus (Zika virus); assay: cell-based or functional assay
[2] = target: ZIKV-VLP (Native Antigen Inc.) (Zika virus); assay: BLI binning on ZIKV-VLP; 1st mAb (row): C10
[3] = target: ZIKV-VLP (Native Antigen Inc.) (Zika virus); assay: BLI binning on ZIKV-VLP; 1st mAb (row): 102-1
[4] = target: ZIKV-VLP (Native Antigen Inc.) (Zika virus); assay: BLI binning on ZIKV-VLP; 1st mAb (row): 242-3
[5] = target: ZIKV-VLP (Native Antigen Inc.) (Zika virus); assay: BLI binning on ZIKV-VLP; 1st mAb (row): 289-3
[6] = target: ZIKV-VLP (Native Antigen Inc.) (Zika virus); assay: BLI binning on ZIKV-VLP; 1st mAb (row): 306-2
[7] = target: ZIKV-VLP (Native Antigen Inc.) (Zika virus); assay: BLI binning on ZIKV-VLP; 1st mAb (row): 270-12
[8] = target: ZIKV-VLP (Native Antigen Inc.) (Zika virus); assay: indirect ELISA, purified antibody serially diluted from 10 µg/ml
[9] = target: purified inactivated Zika virus (PIZV) (Zika virus); assay: as above
[10] = target: ZIKV-VLP (Native Antigen Inc.) (Zika virus); assay: BLI binning on ZIKV-VLP; 1st mAb: 4G2
[11] = target: ZIKV-VLP (Native Antigen Inc.) (Zika virus); assay: BLI binning on ZIKV-VLP; 1st mAb: Ab1
[12] = target: ZIKV-VLP (Native Antigen Inc.) (Zika virus); assay: BLI binning on ZIKV-VLP; 1st mAb: Ab2
[13] = target: ZIKV-VLP (Native Antigen Inc.) (Zika virus); assay: BLI binning on ZIKV-VLP; 1st mAb: C10
[14] = target: ZIKV-VLP (Native Antigen Inc.) (Zika virus); assay: BLI binning on ZIKV-VLP; 1st mAb: 11-3
[15] = target: ZIKV-VLP (Native Antigen Inc.) (Zika virus); assay: BLI binning on ZIKV-VLP; 1st mAb: 78-2
[16] = target: ZIKV-VLP (Native Antigen Inc.) (Zika virus); assay: BLI binning on ZIKV-VLP; 1st mAb: 102-1
[17] = target: ZIKV-VLP (Native Antigen Inc.) (Zika virus); assay: BLI binning on ZIKV-VLP; 1st mAb: 181-4
[18] = target: ZIKV-VLP (Native Antigen Inc.) (Zika virus); assay: BLI binning on ZIKV-VLP; 1st mAb: 242-3
[19] = target: ZIKV-VLP (Native Antigen Inc.) (Zika virus); assay: BLI binning on ZIKV-VLP; 1st mAb: 260-2
[20] = target: ZIKV-VLP (Native Antigen Inc.) (Zika virus); assay: BLI binning on ZIKV-VLP; 1st mAb: 289-3
[21] = target: ZIKV-VLP (Native Antigen Inc.) (Zika virus); assay: BLI binning on ZIKV-VLP; 1st mAb: 306-2
[22] = target: ZIKV-VLP (Native Antigen Inc.) (Zika virus); assay: BLI binning on ZIKV-VLP; 1st mAb: 329-2
[23] = target: ZIKV-VLP (Native Antigen Inc.) (Zika virus); assay: BLI binning on ZIKV-VLP; 1st mAb: 270-12

Substance	EC50 (half-maximal binding concentration) [8] [µg/mL]	response of 2nd mAb [10]	response of 2nd mAb [11]	response of 2nd mAb [12]	response of 2nd mAb [13]	response of 2nd mAb [14]	response of 2nd mAb [15]	response of 2nd mAb [16]	response of 2nd mAb [17]	response of 2nd mAb [18]	response of 2nd mAb [19]	response of 2nd mAb [20]	response of 2nd mAb [21]	response of 2nd mAb [22]	response of 2nd mAb [23]	further results
C10 (commercially-available anti-dengue antibody)	0.162	0.24	0.66	0.05	0.17	0.63	0.56	0.68	0.55	0.59	0.61	0.63	0.62	0.57	0.58	MNT IC50 (ng/mL) of Purified antibody [1]: 306 ng/mL; response of 2nd mAb [2]: -0.0123; response of 2nd mAb [3]: -0.0138; response of 2nd mAb [4]: -0.0078; response of 2nd mAb [5]: -0.0388; response of 2nd mAb [6]: 0.0209; response of 2nd mAb [7]: -0.0081; EC50 (half-maximal binding concentration) [9]: 0.0268 µg/mL
4G2 (commercially-available anti-dengue antibody)	0.33	0.62	0.52	-0.08	0.54	0.52	0.17	0.46	0.5	0.52	0.54	0.51	0.43	0.51	0.43	EC50 [9]: 0.0182 µg/mL
